Experimental data taken from patent publication US20060019871A1, “Endothelial cell apoptosis induced by fibrinogen gamma chain C-terminal fragment” (The Regents of the University of California, priority 2004, published 2006).
Like-named read-outs stand apart in the source and are kept apart here.

Assays:
[1] = system: γC-399tr-induced apoptosis; assay: Blocking of γC-399tr-induced apoptosis by MAPK inhibitors (FIG. 6); assay type: cell-based
Method: 10 μM of inhibitor is the saturating concentration.
It was further observed that endothelial cell apoptosis induced by γC-399tr can be blocked by p38 MAP kinase inhibitor SB-203580 but not inhibitors of some other MAP kinases.

MAP kinases Erk1 and 2 = assay: Activation of MAP kinases Erk1 and 2, western blotting in β3-CHO cells (FIG. 4); assay type: cell-based, Chinese hamster; details: soluble γC in the medium, 30 min
Method: FIG. 4. Fibrinogen γC-induced activation of MAP kinases Erk1 and 2. CHO cells expressing recombinant αvβ3 (β3-CHO cells) were incubated with soluble γC at indicated concentrations for 30 min and the levels of MAP kinases (Erk1 and 2) were determined by western blotting with anti-phosphorylated Erk 1 and 2.
It remains a possibility that γC acts as an antagonist and blocks signaling from other integrin ligands by competing for binding to integrins.

[2] = system: calf pulmonary artery endothelial (CPAE) cells; assay: CPAE proliferation / apoptosis, MTS and Phosphate assay (FIG. 5); assay type: cell-based
Method: FIG. 5. Inhibition of CPAE Proliferation induced by fibrinogen γC and γC-399tr. CPAE proliferation was measured by using a MTS and Phosphate assay. 10% serum-induced proliferation was inhibited by γC in a concentration-dependent fasion 48 hours passed after 1×10^5/ml. The γC-399tr is approximately 3 times more efficient in inducing apoptosis of CPAE cells.
A deletion mutant of γC that has 12 amino acids truncated from the C-terminal of γC, termed γC-399tr (having the amino acid sequence of 1-249 of SEQ ID NO:3), was recombinantly produced and purified.

β3-CHO cells = assay: MTS (CellTiter96) proliferation assay, β3-CHO cells (FIG. 2); assay type: cell-based, Chinese hamster
Method: (§1) FIG. 2. […] The numbers of proliferating cells were determined using a tetrazolium compound MTS (CellTiter96® assay).

BAE cells [3] = assay: MTS (CellTiter96) proliferation assay, BAE cells (FIG. 2); assay type: cell-based, bovine
Method: as §1

CHO cells = assay: MTS (CellTiter96) proliferation assay, CHO cells (FIG. 2); assay type: cell-based, Chinese hamster
Method: as §1

caspase-3 and caspase-7 = assay: Activation of caspases by γC in CPAE cells; assay type: cell-based, calf; details: protein expression and enzymatic activity
BAE cells [4] = assay: Annexin V / propidium iodide binding, flow cytometry, apoptosis of BAE cells (FIG. 3); assay type: cell-based, bovine
Method: FIGS. 3A and 3B. […] BAE cells were treated with 10 μg/ml recombinant soluble γC or native fibrinogen for the indicated time. The binding of annexin V or propidium iodide (PI) to the treated BAE cells was measured in flow cytometry (FIG. 3A).

[5] = system: Bovine Arterial Endothelial (BAE) cell; assay: Growth arrest of BAE cells in culture (FIG. 1); assay type: cell-based
Method: FIG. 1. Fibrinogen γC-induced growth arrest of Bovine Arterial Endothelial (BAE) cell. […] Fragment D required much higher concentrations (100 μg/ml) to induce detectable apoptotic effects.

[6] = system: DLD-1 human colon adenocarcinoma cells; assay: Tumor growth of DLD-1 xenograft in SCID mice; assay type: in vivo; details: injections of recombinant γC-399tr in PBS
Method: Human breast adenocarcinoma BT20 cells are subcutaneously injected into 7-9-week-old male non-obese diabetes/severe combined immunodeficiency (NOD/SCID) mice. The animals are divided into 4 groups, each having 5 animals. Each animal receives 2×10^6 cells in the injection. The treatment groups, Groups 1-3, are injected daily intraperitoneally with recombinant γC. The control group, Group 4, receives injections of equal volumes of PBS each day. The dimensions of the tumors are measured and the tumor volumes are calculated. After two weeks of treatment, the animals are sacrificed and the tumors are excised, sectioned, and evaluated histologically. To examine the tumor vasculatures, the tumor sections are stained by CD31 anti-mouse monoclonal antibody (PharMingen, San Diego, Calif.). Tumor size and the extent of tumor vasculature are compared among all treatment and control groups.
Following the general procedure described in Example 2, DLD-1 human colon adenocarcinoma cells were injected into SCID mice. Subsequently, the treatment groups of mice received injections of recombinant γC-399tr in PBS, whereas the control group received PBS injections.

C[S+]([O-])c1ccc(-c2nc(-c3ccncc3)c(-c3ccc(F)cc3)[nH]2)cc1 (stereo not drawn) [SB-203580]
saturating concentration of inhibitor for blocking γC-399tr-induced apoptosis [1]: 10 µM | blocking of γC-399tr-induced apoptosis ([1]; endothelial cell): blocks

B1: γC: Fibrinogen γ-chain C-terminal domain, 30 Kd, about 250 amino acid residues, sequence as set forth in SEQ ID NO:3 (protein, listed as Homo sapiens)
chain: KDCQDIANKGAKQSGLYFIKPLKANQQFLVYCEIDGSGNGWTVFQKRLDGSVDFKKNWIQYKEGFGHLSPTGTTEFWLGNEKIHLISTQSAIPYALRVELEDWNGRTSTADYAMFKVGPEADKYRLTYAYFAGGDAGDAFDGFDFGDDPSDKFFTSHNGMQFSTWDNDNDKFEGNCAEQDGSGWWMNKCHAGHLNGVYYQGGTYSKASTPNGYDNGIIWATWKTRWYSMKKTTMKIIPFNRLTIGEGQQHHLGGAKQAGDV
modifications: C-terminal region of fibrinogen gamma chain, isoform gamma-A, residues 177-437
concentration inducing MAP kinase activation (MAP kinases Erk1 and 2): less than 1 μg/ml | apoptosis in CPAE cells [2]: induced apoptosis | 10% serum-induced CPAE proliferation ([2]; 48 hours, 1×10^5/ml): inhibited | effect on proliferation of β3-CHO cells (β3-CHO cells): little or no effect | effect on proliferation of β3-CHO cells (β3-CHO cells; listed as γC domain): not | level of γC effectively blocking proliferation of BAE cells (BAE cells [3]): below 1 μg/ml | proliferation of BAE cells in the MTS assay (BAE cells [3]): blocked proliferation | effect on proliferation of CHO cells (CHO cells): little or no effect | effect on proliferation of CHO cells (CHO cells; listed as γC domain): not | activation of caspase-3 and caspase-7 (caspase-3 and caspase-7): activation of caspase-3 and caspase-7 | induction of apoptosis of BAE cells (BAE cells [4]; 10 μg/ml, annexin V / PI binding): induced apoptosis | time at which apoptosis of BAE cells was detectable (BAE cells [4]; 10 μg/ml, annexin V / PI flow cytometry): 2 to 4 h | time in which apoptosis of BAE cells was induced (BAE cells [4]; annexin V binding assays): 2 to 4 h | proliferation of BAE cells ([5]; 12.5 μg/ml each in culture media, 1×10^4 cells per well, 48 hours): blocked proliferation | concentration blocking proliferation of BAE cells ([5]; FIG. 1 as cited): less than 1 μg/ml

B2: γC-399tr: Deletion mutant of γC with 12 amino acids truncated from the C-terminal; amino acid sequence 1-249 of SEQ ID NO:3 (protein, listed as Homo sapiens)
chain: KDCQDIANKGAKQSGLYFIKPLKANQQFLVYCEIDGSGNGWTVFQKRLDGSVDFKKNWIQYKEGFGHLSPTGTTEFWLGNEKIHLISTQSAIPYALRVELEDWNGRTSTADYAMFKVGPEADKYRLTYAYFAGGDAGDAFDGFDFGDDPSDKFFTSHNGMQFSTWDNDNDKFEGNCAEQDGSGWWMNKCHAGHLNGVYYQGGTYSKASTPNGYDNGIIWATWKTRWYSMKKTTMKIIPFNRLTIGEGQQ
modifications: C-terminal region of fibrinogen gamma chain, isoform gamma-A, residues 177-437
tumor size versus PBS control group [6]: reduced tumor size
